Here are results for three substances from US20230144608.

In series [1] the test system is APAGLIVPYN (SEQ ID NO: 5).
Series [2] deals with RPLALWRS (SEQ ID NO: 3).
The test system of series [3] is RSKYLATA (SEQ ID NO: 8).
The test system of series [4] is TQKPLGLS (SEQ ID NO: 4).
Series [5] relates to PANLVAPDP (SEQ ID NO: 6).
Series [6] deals with IVGRPRHQGV (SEQ ID NO: 7).
The test system of series [7] is PVSLRSGS (SEQ ID NO: 1).

Sequence of MMP-9 (chain, as listed by the source): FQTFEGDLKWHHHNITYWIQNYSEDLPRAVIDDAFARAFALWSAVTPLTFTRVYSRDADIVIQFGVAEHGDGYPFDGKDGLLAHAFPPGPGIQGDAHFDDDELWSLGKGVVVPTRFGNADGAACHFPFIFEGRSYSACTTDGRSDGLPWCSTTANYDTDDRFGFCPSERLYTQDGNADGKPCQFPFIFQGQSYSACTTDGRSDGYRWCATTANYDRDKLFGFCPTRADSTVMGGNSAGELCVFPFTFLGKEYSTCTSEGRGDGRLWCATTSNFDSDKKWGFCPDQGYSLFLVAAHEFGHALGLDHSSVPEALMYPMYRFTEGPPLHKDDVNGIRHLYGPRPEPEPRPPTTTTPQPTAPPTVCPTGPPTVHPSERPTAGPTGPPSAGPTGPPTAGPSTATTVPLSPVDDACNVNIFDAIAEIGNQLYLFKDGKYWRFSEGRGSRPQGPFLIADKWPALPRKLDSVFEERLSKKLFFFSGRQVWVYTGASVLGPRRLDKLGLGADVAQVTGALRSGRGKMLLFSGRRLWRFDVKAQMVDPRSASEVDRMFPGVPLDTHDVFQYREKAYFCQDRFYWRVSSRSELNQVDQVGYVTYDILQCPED
Sequence of MMP-8 (chain, as listed by the source): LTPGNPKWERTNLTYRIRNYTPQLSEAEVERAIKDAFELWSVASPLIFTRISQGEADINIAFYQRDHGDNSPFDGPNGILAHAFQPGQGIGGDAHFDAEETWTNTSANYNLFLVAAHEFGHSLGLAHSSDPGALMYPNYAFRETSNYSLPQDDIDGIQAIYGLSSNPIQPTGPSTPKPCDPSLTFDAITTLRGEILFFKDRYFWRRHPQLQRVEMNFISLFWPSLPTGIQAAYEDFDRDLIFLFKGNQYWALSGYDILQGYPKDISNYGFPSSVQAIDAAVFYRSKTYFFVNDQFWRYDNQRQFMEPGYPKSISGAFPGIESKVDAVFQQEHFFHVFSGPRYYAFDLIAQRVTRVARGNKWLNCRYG
Sequence of MMP-10 (chain, as listed by the source): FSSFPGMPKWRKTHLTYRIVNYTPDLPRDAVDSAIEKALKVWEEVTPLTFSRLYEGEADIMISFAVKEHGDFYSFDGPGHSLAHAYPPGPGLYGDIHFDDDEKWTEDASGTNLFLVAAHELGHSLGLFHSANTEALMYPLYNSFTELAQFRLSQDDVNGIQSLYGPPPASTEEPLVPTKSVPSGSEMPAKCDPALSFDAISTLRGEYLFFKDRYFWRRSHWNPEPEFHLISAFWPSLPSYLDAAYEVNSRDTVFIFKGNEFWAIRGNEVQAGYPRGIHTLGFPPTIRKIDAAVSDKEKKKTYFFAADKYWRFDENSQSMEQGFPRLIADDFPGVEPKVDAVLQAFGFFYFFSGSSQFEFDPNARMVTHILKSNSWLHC

On to MMP-8, for which the initial rate of cleavage by recombinant protease in series [1] amounted to 0.5 µM/h; in series [2] it was 0.2 µM/h; in series [3] it was 0 µM/h; in series [4] it was 0.1 µM/h; in series [5] it was 7.2 µM/h; in series [6] it was 0 µM/h. For the same substance, the initial rate of cleavage by recombinant protease in series [7] amounted to 0.1 µM/h.

Consider MMP-9, for which the initial rate of cleavage by recombinant protease in series [1] is 1.8 µM/h; in series [2] it was 0.2 µM/h; in series [3] it was 0 µM/h; in series [4], 0.3 µM/h; in series [5], 8.8 µM/h; in series [6] it was 0 µM/h. Also, in series [7], the initial rate of cleavage by recombinant protease is 6.5 µM/h.

On to MMP-10, for which the initial rate of cleavage by recombinant protease worked out at 1.6 µM/h in series [1]; 0 µM/h in series [2]; 0 µM/h in series [3]; 0 µM/h in series [4]; 1.8 µM/h in series [5]; 0 µM/h in series [6]. In series [7], the initial rate of cleavage by recombinant protease came out at 0 µM/h.
